Measurements from patent US20090041783A1 (MOCHIDA PHARMACEUTICAL, published 2009).

Tests used:
[1] = target: T1, human platelet membrane glycoprotein VI (GPVI) on human platelets (human, UniProt Q9HCN6 21-339); experiment: flow cytometry on human platelets, 3-4 µg/mL antibody, anti-human IgM-FITC
T1 construct: whole, on cells
T1 sequence (looked up): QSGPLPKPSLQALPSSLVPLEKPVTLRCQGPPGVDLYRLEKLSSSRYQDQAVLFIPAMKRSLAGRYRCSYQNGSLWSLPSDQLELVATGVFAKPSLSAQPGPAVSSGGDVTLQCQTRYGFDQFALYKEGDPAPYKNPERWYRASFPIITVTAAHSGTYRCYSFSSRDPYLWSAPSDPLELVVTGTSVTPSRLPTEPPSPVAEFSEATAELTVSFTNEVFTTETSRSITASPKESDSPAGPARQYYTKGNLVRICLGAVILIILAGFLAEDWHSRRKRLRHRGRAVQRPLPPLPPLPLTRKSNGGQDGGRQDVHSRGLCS
Method: Cynomolgus monkey and human PRPs prepared by the method described in 18-1 of EXAMPLE 18 were diluted with FACS buffer to make the platelet concentration 3.75×10⁸ cells/mL. To the diluted PRP, cF1232-37-2 (IgM) or cF1232-43-3 (IgM) prepared in the above 29-2 was added at the final concentration of 3-4 μg/mL, and stood at 25° C. for 30 minutes. After incubation, the platelet was washed with FACS buffer. Subsequently, after adding anti-human IgM-FITC (BD Biosciences Pharmingen) and standing at room temperature for 30 minutes, the platelet was washed with FACS buffer and the fluorescence intensity of the platelet was measured with flow cytometer CYTOMICS FC500 (BECKMAN COULTER). As a result, it was confirmed that both antibodies of cF1232-37-2 (IgM) and cF1232-43-3 (IgM) bind to the monkey and the human platelet.

[2] = target: T2, human GPVI extracellular region-human Fc fusion protein (hGPVI-hFc) (human); experiment: ELISA on immobilised hGPVI-hFc, anti-human mu-chain detection
T2 construct: Expressed in COS-1, purified on Protein A; also called GPVI-HHH-hFc; hGPVIHHH-hFc

B1: mouse/human chimeric IgM-type F1232-37-2, cF1232-37-2 (IgM) (antibody)
VH: VQLQQSGPELVRPGESVKISCKGSGYTFTDYAIHWVKLSHAKSLEWIGVISIYYDDTNYNQKFKGKATMTVDKSSSTAYLELARLTSEDSAIYYCARRRDSSGPYAMDYWGQGTSVTVSS
VL: DIVLTQSPASLAVSLGQRATISCRASESVDSYGNSFMHWYQQKPGQPPKLLIYRASNLESGIPARFSGSGSRTDFTLTINPVEADDVATYYCQQSNEDPYTFGGGTKLEIKRADAA
chain: not shown
notes: Heavy chain: V region of cF1232-37-2 with human mu-chain constant region (pTK-2820); the CDRs of both clones are printed identical; Human kappa constant region
- binding result [1]: binds
- binding result [2]: binds
